Assay results from PMC6479807.
Blank lines part the entries; values can stand above or below the substance they belong to.

Experiments:
[1] = biological target: PsSYM10 extracellular domain (PsSYM10-ECD) (Pisum sativum (pea))
[2] = biological target: PsSYM10 extracellular domain (PsSYM10-ECD) (Pisum sativum (pea)); remark: listed apart in the source
[3] = biological target: PsSYM10 extracellular domain (PsSYM10-ECD) (Pisum sativum (pea)); remark: listed apart in the source

hypersensitive response in N. benthamiana leaves on co-production of full-length PsSYM10 and full-length PsK1-6xHIS with the LysM1 replacement (k1-3); percent of leaves with HR [1]: 93%
Substance: PsK1-ECD with S59F replacement in LysM1 (as in the k1-3 mutant line) (domain or fragment)

hypersensitive response in N. benthamiana leaves on co-production of full-length PsSYM10 and full-length PsK1-6xHIS with P169→S; percent of leaves with HR [2]: 53%
Substance: PsK1-ECD with P169S replacement in LysM3 (as in the k1-2 mutant line) (domain or fragment)

Substance: PsK1 extracellular domain (PsK1-ECD), wild type (domain or fragment)
hypersensitive response (cell death) in N. benthamiana leaves 48–72 h after infiltration, on co-production of full-length PsSYM10-3xFLAG and PsK1-6xHIS; percent of leaves with HR [3]: 90%
